According to PMC5717350, “The human CTF4-orthologue AND-1 interacts with DNA polymerase α/primase via its unique C-terminal HMG box” (Open Biology, 2017):
Blank lines part the entries; values can stand above or below the binder they belong to. No end group written: not given here.

Legend:
[1] = target: T1, MBP-tagged AND-1CT (837–1129) (human, UniProt O75717 837-1129); experiment: pull-down; MBP-AND-1 constructs bound to 100 µl amylose resin, 25 nmol GST-B added as prey; PD buffer, 2.5 mg/ml BSA, 4°C; eluted with 20 mM maltose; Coomassie; details: both partners purified
T1 construct: also called entire AND-1CT; source: E. coli Rosetta2(DE3), purified (Ni-NTA, Superdex 200)
T1 sequence (looked up): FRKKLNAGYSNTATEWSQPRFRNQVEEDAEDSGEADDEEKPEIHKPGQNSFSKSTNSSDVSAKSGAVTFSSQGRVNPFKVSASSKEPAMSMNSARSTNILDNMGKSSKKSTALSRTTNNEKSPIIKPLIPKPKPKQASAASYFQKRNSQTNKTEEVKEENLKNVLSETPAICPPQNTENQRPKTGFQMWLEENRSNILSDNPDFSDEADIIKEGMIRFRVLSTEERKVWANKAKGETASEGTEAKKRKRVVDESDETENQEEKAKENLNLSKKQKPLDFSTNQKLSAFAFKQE

[2] = target: T2, AND-1 SepB + CT (316–1129) (human, UniProt O75717 316-1129); experiment: pull-down; GST-B fusion proteins (in figure 6a also GST-Pol α CIP, equimolar) bound to 100 µl glutathione agarose, 2.2 nmol AND-1 (1–1129, 316–1129 or 336–826) added as prey; PD buffer, 2.5 mg/ml BSA, 4°C; Coomassie, anti-His western blot in figure 6a; details: both partners purified
T2 construct: source: E. coli Rosetta2(DE3), purified (Ni-NTA, Q-Sepharose, TEV cleavage, Superdex 200)
T2 sequence (looked up): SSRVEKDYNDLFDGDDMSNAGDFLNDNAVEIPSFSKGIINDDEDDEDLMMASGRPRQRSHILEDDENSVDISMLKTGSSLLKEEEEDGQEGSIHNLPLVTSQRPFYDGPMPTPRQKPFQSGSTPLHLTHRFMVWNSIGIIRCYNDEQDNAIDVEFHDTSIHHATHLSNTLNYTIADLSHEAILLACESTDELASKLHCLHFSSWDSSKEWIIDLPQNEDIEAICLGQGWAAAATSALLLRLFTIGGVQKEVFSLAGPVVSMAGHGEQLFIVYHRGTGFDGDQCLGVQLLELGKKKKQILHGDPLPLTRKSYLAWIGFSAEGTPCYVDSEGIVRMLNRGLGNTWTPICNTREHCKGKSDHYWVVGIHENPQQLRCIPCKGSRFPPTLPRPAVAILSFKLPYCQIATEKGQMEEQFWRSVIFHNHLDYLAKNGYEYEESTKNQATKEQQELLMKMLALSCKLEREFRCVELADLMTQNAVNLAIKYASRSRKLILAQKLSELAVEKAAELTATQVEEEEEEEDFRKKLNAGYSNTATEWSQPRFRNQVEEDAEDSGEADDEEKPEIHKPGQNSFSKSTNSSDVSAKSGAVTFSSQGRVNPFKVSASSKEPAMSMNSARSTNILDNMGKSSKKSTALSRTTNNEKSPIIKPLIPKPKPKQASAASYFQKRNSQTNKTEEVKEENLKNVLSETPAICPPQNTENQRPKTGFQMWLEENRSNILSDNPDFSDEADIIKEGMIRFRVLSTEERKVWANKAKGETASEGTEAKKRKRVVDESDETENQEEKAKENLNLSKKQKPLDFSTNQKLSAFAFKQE

[3] = target: T3, Full-length His10-myc-tagged AND-1 (1–1129) (human, UniProt O75717 1-1129); experiment: as above; details: both partners purified
T3 construct: the oligomeric state was measured only on the SepB constructs; also called His-myc-AND-1; human CTF4-orthologue AND-1; source: Sf9 insect cells (baculovirus, MultiBac), purified (Ni-NTA, Q-Sepharose)
T3 sequence (looked up): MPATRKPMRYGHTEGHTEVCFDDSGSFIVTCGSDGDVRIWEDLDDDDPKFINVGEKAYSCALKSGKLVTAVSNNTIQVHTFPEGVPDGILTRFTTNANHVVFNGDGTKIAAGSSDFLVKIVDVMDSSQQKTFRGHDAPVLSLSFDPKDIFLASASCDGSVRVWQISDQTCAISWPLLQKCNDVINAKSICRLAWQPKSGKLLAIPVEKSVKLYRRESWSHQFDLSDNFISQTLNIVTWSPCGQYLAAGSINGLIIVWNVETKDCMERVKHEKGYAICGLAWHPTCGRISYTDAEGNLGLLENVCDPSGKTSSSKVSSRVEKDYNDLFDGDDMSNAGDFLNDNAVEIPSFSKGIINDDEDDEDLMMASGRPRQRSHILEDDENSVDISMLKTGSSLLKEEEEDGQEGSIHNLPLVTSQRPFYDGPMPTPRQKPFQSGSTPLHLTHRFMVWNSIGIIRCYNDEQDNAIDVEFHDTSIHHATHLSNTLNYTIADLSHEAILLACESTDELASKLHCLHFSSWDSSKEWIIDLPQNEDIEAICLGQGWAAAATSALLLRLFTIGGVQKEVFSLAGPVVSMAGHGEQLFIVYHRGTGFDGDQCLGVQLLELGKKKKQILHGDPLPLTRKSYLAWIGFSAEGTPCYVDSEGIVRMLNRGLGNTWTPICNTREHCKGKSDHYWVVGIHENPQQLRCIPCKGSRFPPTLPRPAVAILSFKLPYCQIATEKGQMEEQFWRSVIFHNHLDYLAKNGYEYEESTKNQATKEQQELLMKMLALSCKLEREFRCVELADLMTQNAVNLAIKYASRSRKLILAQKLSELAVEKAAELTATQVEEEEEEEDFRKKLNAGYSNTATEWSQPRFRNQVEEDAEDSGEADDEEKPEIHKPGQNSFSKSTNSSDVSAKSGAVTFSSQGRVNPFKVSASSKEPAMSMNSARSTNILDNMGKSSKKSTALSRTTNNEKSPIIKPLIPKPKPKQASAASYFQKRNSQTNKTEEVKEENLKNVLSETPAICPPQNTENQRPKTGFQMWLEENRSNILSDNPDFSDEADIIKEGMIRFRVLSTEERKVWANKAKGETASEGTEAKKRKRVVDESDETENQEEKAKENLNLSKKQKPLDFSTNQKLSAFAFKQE

AND-1CT = target: T4, AND-1CT (human, UniProt O75717 837-1129); experiment: fluorescence anisotropy; FP: 25 mM HEPES pH 7.2, 100 mM KCl, 0.5 mM TCEP, 20 nM DNA, 25 C; EMSA: 25 mM HEPES pH 7.2, 100 mM KCl, 5 mM MgCl2, TCEP, 3 uM DNA, 0.75% (so in the source) agarose gel in 0.5x Tris-borate pH 8.3, 4 C; details: protein: recombinant; tags: none (His6-MBP removed by TEV); label: 5' 6FAM; single strand
T4 sequence: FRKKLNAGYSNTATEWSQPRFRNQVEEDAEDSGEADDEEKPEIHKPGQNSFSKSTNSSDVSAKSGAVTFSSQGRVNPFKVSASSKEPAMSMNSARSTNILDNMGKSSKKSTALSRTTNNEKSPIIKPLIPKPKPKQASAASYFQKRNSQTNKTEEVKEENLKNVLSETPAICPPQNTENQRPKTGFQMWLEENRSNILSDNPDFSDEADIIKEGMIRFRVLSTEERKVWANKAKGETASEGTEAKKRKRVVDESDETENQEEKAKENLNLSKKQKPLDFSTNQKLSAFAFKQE

AND-1 full length [4] = target: T5, AND-1 full length (human, UniProt O75717 1-1129); experiment: as above; details: protein: recombinant; tags: His10-myc; chain copies: 3; label: 5' 6FAM; single strand
T5 sequence: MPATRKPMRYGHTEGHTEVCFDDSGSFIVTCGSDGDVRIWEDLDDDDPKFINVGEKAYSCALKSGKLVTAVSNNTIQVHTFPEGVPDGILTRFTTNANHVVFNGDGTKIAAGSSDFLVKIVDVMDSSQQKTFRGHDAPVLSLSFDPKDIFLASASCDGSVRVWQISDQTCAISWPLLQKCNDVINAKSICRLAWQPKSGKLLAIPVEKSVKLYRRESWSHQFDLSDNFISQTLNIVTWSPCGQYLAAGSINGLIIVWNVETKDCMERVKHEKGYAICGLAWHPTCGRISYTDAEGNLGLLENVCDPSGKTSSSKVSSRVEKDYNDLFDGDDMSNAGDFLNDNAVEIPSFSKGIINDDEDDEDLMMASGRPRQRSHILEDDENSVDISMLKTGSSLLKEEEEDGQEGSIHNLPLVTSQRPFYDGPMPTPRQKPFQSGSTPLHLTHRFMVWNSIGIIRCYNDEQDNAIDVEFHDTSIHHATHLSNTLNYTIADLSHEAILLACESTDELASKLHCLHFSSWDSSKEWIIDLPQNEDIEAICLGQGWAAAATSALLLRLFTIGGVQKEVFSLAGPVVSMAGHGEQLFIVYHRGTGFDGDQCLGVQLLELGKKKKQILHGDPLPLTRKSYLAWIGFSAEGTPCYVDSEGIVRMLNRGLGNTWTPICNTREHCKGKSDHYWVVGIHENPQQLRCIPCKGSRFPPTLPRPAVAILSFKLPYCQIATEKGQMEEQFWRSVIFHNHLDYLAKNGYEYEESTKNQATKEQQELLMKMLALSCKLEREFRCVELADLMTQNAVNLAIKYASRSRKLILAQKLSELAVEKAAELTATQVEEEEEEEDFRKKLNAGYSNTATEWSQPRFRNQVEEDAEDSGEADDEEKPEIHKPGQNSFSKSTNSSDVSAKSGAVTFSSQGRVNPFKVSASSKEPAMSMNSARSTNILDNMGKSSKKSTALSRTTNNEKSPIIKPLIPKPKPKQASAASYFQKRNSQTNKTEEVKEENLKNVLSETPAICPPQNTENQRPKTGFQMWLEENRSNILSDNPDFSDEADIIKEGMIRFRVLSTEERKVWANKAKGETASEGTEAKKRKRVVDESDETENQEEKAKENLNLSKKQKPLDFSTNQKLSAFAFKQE

AND-1 full length [5] = target: T5, AND-1 full length; experiment: EMSA; 5 mM MgCl2; FP: 25 mM HEPES pH 7.2, 100 mM KCl, 0.5 mM TCEP, 20 nM DNA, 25 C; EMSA: 25 mM HEPES pH 7.2, 100 mM KCl, 5 mM MgCl2, TCEP, 3 uM DNA, 0.75% (so in the source) agarose gel in 0.5x Tris-borate pH 8.3, 4 C; details: protein: recombinant; tags: His10-myc; chain copies: 3; label: 5' 6FAM on strand 1; fork, 20 bp duplex (1:1-20 with 2:21-40), unpaired arms of 20 nt (1:21-40 3' arm, 2:1-20 5' arm)
[6] = target: T6, AND-1 (329–826), SepB domain (human, UniProt O75717 329-826); experiment: fluorescence polarisation; 30 nM fluorescein-labelled Pol α CIP peptide, AND-1 SepB titrated; 25 mM HEPES pH 7.2, 140 mM NaCl, 5 mM DTT, 5 mM MgCl2, 5% glycerol; 25°C; 96-well plate; details: both partners purified
T6 construct: human AND-1, residues 329-826 (SepB domain); residues 329-420 and 824-826 not in the final crystallographic model; Trimer arises from crystallographic symmetry (one protomer per asymmetric unit); also called AND-1 SepB
T6 sequence (looked up): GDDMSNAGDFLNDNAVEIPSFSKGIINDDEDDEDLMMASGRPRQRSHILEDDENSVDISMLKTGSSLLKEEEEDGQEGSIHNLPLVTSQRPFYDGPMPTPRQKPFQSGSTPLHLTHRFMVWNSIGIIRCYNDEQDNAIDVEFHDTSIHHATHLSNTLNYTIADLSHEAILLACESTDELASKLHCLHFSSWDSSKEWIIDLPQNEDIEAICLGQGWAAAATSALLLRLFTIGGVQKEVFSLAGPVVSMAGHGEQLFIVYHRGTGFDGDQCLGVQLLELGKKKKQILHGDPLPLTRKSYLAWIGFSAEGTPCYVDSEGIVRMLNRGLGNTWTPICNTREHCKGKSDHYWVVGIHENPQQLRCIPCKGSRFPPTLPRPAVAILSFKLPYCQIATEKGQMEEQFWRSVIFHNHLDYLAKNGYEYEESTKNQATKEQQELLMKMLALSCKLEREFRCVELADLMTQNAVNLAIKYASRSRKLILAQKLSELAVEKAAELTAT

Binder: CTTCCGAGACCTTGCCCATCCCGTAGAACCTGTTATCCAA (ssDNA) [ssDNA 40mer (oligo A)]
- Kd (AND-1CT): ~800 nM
- Kd (AND-1 full length [4]): ~800 nM

B2: fDNA (oligos A+C) (mixed)
DNA 1: CTTCCGAGACCTTGCCCATCCCGTAGAACCTGTTATCCAA
DNA 2: GCTACCTTTGAACCTACGATGATGGGCAAGGTCTCGGAAG
- binding result (AND-1 full length [5]): binds

Continued, values first:

- binding result [1]: binds
- binding result [2]: binds
- binding result [3]: binds
B1: GST-BNTD (B subunit amino acids 1–78) (domain or fragment, human, UniProt Q14181 1-78, looked up)
chain: MSASAQQLAEELQIFGLDCEEALIEKLVELCVQYGQNEEGMVGELIAFCTSTHKVGLTSEILNSFEHEFLSKRLSKAR
notes: human DNA polymerase α B subunit, residues 1-78 (four-helix bundle N-terminal domain); also called GST-B(1–78); B N-terminal domain; source: E. coli Rosetta2(DE3), purified (Ni-NTA agarose)

- Kd [6]: 39000 nM
B3: Fluorescein-labelled Pol α CIP peptide (152–171) (peptide)
peptide: DLSKDGLLGDILQDLNTETP
modifications: also: fluorescein label, position not given here
notes: source: synthetic peptide (Genosphere Biotechnologies)
